From FireProtDB (doi:10.1021/bi00005a026)

Conditions: Hordeum vulgare; pH 6.3; Thermal; Fluorescence; phosphate 10 mM; reversible: yes; whole UniProt chain shown

B1: Subtilisin-chymotrypsin inhibitor-2A wild type, P01053 (protein)
chain: MSSVEKKPEGVNTGAGDRHNLKTEWPELVGKSVEEAKKVILQDKPEAQIIVLPVGTIVTMEYRIDRVRLFVDKLDNIAQVPRVG
With B1 the Tm was 46.6 °C and the “unfolding enthalpy (van 't Hoff)” value was 34.1 kcal/mol.
